Source: US20050124549A1 (ADMINISTRATORS OF THE TULANE EDUCATIONAL FUND, published 2005)
Where no end group is shown, it is not given here. [ ]: non-standard residue; d: D form.

B1: Compound 5: D-Phe-Phe-Trp-D-Trp-Lys-Thr-Phe-Thr-NH2 (peptide)
peptide: [dF]FW[dW]KTFT-NH2
notes: also called SSTR5 preferential agonist; SSTR5 selective agonist
B2: Compound 1: D-Nal-cyclo[Cys-Tyr-D-Trp-Lys-Val-Cys]-Thr-NH2 (peptide)
peptide: XCYXKVCT
modifications: not fully specified; D-Nal at position 1; D-Trp at position 4; cyclo (disulfide) Cys2-Cys7; C-terminal amide
notes: also called SSTR2 preferential agonist

Legend:
[1] = biological target: T1, human somatostatin receptor subtype 2 (human, UniProt P30874 1-369); assay: cell-based or functional assay
T1 construct: whole, on cells; also called SSTR2; SSTR-2

[2] = biological target: T1, human somatostatin receptor subtype 2; assay: radioligand displacement, CHO-K1 membranes expressing human SSTR2; competitor [125I]MK-678
Protocol: (§1) Specificity and selectivity of the analogues were determined by Radioligand Binding Assay on CHO-K1 cells stably transfected with each of the SSTR subtypes, as follows.
(§2) Membranes for in vitro receptor binding assays were obtained by homogenizing the CHO-K1 cells expressing the SSTR's subtypes in ice-cold 50 mM Tris-HCl and centrifuging twice at 39000 g (10 min), with an intermediate resuspension in fresh buffer. The final pellets were resuspended in 10 mM Tris-HCl for assay. […] The final assay volume was 0.3 ml. […] The incubations were terminated by rapid filtration through GF/C filters (pre-soaked in 0.3% polyethylenimine) using a Brandel filtration manifold. Each tube and filter were then washed three times with 5 ml aliquots of ice-cold buffer.

[3] = biological target: T2, human somatostatin receptor subtype 1 (human, UniProt P30872 1-391); assay: radioligand displacement, CHO-K1 membranes expressing human SSTR1; competitor [125I-Tyr11]SS-14
T2 construct: whole, on cells; Membrane preparations of transfected CHO-K1 cells; also called SSTR1; SSTR-1
Protocol: as §1, §2

[4] = biological target: T3, human somatostatin receptor subtype 5 (human, UniProt P35346 1-364); assay: radioligand displacement, CHO-K1 membranes expressing human SSTR5; competitor [125I-Tyr11]SS-14
T3 construct: whole, on cells; also called SSTR5; SSTR-5
Protocol: as §1, §2

[5] = biological target: T4, human somatostatin receptor subtype 3 (human, UniProt P32745 1-418); assay: radioligand displacement, CHO-K1 membranes expressing human SSTR3; competitor [125I-Tyr11]SS-14
T4 construct: whole, on cells; Membrane preparations of transfected CHO-K1 cells; also called SSTR3; SSTR-3
Protocol: as §1, §2

[6] = biological target: human somatostatin receptor subtype 4 (human) (UniProt P31391); assay: radioligand displacement, CHO-K1 membranes expressing human SSTR4; competitor [125I-Tyr11]SS-14
Chain of human somatostatin receptor subtype 4 (human) (P31391 whole entry): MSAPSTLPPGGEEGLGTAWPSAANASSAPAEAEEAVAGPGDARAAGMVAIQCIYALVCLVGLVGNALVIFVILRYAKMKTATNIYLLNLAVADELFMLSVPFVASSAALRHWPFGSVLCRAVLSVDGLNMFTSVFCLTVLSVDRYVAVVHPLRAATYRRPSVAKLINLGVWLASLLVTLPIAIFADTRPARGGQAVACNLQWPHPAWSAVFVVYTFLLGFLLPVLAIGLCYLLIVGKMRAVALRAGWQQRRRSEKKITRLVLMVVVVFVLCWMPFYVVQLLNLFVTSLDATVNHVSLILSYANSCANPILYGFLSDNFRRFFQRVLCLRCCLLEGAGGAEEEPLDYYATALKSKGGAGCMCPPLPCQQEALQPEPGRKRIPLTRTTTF

T3 sequence (P35346 whole entry): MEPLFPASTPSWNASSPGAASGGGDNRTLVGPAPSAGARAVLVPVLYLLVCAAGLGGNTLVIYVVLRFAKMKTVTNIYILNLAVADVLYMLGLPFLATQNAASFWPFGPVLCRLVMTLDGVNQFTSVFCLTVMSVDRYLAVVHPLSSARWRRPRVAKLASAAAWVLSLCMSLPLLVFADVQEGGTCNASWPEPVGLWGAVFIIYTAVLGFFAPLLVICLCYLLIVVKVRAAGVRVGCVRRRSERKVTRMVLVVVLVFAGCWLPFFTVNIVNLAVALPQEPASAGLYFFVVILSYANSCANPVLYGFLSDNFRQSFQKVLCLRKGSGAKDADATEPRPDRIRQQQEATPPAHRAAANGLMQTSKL
T1 sequence (P30874 whole entry): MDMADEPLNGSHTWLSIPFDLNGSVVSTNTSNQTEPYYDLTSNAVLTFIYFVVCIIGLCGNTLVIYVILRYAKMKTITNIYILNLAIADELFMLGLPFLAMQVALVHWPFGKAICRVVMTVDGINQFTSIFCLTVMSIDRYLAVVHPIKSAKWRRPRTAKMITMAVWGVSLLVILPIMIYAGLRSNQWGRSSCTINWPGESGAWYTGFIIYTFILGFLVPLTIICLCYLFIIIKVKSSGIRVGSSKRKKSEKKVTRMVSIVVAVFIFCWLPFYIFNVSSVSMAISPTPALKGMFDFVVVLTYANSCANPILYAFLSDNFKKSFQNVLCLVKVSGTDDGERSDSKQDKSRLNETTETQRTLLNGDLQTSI
T4 sequence (P32745 whole entry): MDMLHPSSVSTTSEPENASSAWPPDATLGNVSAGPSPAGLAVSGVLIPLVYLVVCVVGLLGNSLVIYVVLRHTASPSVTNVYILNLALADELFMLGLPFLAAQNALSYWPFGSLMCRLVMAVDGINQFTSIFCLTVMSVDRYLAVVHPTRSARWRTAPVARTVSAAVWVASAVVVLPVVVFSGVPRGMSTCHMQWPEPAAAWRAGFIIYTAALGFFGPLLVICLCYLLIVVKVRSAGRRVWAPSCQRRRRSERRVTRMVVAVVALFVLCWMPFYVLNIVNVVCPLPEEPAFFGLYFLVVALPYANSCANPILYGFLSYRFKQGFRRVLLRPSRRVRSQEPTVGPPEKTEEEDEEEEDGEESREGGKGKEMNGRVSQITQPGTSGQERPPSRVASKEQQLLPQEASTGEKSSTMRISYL
T2 sequence (P30872 whole entry): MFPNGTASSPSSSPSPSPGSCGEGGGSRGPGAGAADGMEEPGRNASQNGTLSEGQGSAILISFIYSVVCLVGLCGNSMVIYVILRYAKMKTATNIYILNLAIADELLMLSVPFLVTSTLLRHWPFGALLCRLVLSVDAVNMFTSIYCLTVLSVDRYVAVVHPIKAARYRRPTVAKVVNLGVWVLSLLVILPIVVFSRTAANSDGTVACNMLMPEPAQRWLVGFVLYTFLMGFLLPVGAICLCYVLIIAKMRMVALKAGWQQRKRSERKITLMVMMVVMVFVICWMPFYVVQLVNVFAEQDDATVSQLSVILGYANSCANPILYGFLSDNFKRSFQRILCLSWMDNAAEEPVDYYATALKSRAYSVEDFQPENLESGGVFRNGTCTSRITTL

Molecule | change of [^3H]thy incorporation in TT cells at 10^-9 M [1] | IC50 [2] | IC50 [3] | IC50 [4] | IC50 [5] | suppression of [^3H]thy incorporation in TT cells, 10^-9 to 10^-7 M [1] | IC50 [6]
Compound 4: 4-(2-Hydroxyethyl)-1-piperazine-2-ethanesulfonyl-D-Phe-cyclo(Cys-Tyr-D-Trp-Lys-Abu-Cys)-Thr-NH2 (peptide) | -13% |  |  |  |  |  | 
Compound 6: Cpa-cyclo(D-Cys-4-Pal-D-Trp-Lys-Thr-Cys)-Nal-NH2 (peptide) |  | 6.4 nM | 2760 nM | 86.5 nM | 44 nM |  | 
Compound 2: cyclo[Tic-Tyr-D-Trp-Lys-Abu-Phe] (peptide) |  | 0.34 nM | 1000 nM | 214 nM | 412 nM | 23 to 58% | 1000 nM
Compound 3: 4-(2-Hydroxyethyl)-1-piperazinylacetyl-D-Phe-cyclo(Cys-Tyr-D-Trp-Lys-Abu-Cys)-Thr-NH2 (peptide) | -17% | 0.35 nM | 5210 nM |  |  |  | 
B1 |  | 166 nM | 1150 nM | 2.4 nM | 1000 nM |  | 
B2 |  | 0.75 nM | 2130 nM |  | 98 nM |  | 
